Measurements taken from paper PMC4601075, “Specific binding of eukaryotic ORC to DNA replication origins depends on highly conserved basic residues” (Scientific Reports, 2015).

How the values were obtained:
[1] = target: ORC-1K362A hexamer K362A (Saccharomyces cerevisiae) (UniProt P54784+P32833+P54790+P54791+P50874+P38826); assay: EMSA; settings: 25 mM HEPES-KOH pH 7.6, 100 mM K glutamate, 5 mM Mg acetate, 5 mM CaCl2, 5 mM DTT, 5% glycerol, 0.1% Triton X-100, 2 mg/ml BSA, 1 mM ATP; 1.6 nM dsDNA or 3 nM …
[2] = target: ORC-1R367A hexamer R367A (Saccharomyces cerevisiae) (UniProt P54784+P32833+P54790+P54791+P50874+P38826); assay: EMSA; settings: 25 mM HEPES-KOH pH 7.6, 100 mM K glutamate, 5 mM Mg acetate, 5 mM CaCl2, 5 mM DTT, 5% glycerol, 0.1% Triton X-100, 2 mg/ml BSA, 1 mM ATP; 1.6 nM dsDNA or 3 nM …
[3] = system: GH-Orc1 301-400 (Saccharomyces cerevisiae); assay: EMSA; settings: competitor DNA; 25 mM HEPES-KOH pH 7.6, 100 mM K glutamate, 5 mM Mg acetate, 5 mM CaCl2, 5 mM DTT, 5% glycerol, 0.1% Triton X-100, 2 mg/ml BSA, 1 mM ATP; 1.6 nM dsDNA or 3 nM …; scale: fold lower affinity than ORC hexamer
[4] = target: T1, ORC (ScORC, ORC hexamer) (Saccharomyces cerevisiae, UniProt P54784+P54791, P54784:R367A); assay: nitrocellulose filter binding, Scatchard plot
T1 construct: gene ORC1; with Origin recognition complex subunit 2; Origin recognition complex subunit 3; Origin recognition complex subunit 5; Origin recognition complex subunit 6
T1 sequence (P54784 whole entry R367A): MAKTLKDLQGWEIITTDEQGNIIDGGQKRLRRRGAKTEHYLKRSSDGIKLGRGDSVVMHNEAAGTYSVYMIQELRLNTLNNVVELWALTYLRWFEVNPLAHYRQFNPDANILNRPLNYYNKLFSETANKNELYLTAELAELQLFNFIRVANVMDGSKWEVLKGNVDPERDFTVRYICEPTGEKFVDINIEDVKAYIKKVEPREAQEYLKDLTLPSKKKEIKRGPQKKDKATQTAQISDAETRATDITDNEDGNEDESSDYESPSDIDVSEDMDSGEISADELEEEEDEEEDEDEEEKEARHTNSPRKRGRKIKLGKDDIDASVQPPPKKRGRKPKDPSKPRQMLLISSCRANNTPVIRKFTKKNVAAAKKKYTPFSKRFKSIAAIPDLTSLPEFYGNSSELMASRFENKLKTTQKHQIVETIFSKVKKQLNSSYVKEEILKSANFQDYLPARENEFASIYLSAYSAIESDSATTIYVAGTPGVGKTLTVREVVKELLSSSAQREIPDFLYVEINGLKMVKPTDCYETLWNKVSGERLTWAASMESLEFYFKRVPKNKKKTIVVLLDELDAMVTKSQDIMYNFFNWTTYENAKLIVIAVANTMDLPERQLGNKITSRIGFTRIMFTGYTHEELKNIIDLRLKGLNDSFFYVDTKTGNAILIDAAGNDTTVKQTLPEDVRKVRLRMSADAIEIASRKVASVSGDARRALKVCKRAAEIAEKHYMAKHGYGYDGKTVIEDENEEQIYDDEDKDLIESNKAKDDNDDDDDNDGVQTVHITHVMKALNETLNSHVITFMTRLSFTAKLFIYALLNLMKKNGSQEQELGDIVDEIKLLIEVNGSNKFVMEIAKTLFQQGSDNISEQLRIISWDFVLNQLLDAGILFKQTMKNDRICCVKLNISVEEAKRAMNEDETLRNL
T1 sequence (P54791 whole entry): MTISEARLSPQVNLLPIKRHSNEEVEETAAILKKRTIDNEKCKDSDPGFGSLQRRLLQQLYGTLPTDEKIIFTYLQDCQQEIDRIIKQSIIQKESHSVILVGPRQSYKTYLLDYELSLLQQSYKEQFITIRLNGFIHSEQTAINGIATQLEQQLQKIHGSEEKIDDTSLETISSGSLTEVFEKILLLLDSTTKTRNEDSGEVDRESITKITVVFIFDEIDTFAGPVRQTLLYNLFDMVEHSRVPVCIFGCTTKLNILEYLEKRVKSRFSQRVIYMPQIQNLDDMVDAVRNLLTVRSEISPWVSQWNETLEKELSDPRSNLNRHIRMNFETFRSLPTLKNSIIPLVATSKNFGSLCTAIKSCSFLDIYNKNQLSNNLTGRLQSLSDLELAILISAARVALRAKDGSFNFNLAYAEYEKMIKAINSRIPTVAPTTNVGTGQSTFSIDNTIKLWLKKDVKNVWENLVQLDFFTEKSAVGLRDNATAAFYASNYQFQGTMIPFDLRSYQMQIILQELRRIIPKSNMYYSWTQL
T1 sequence (P32833 whole entry partner): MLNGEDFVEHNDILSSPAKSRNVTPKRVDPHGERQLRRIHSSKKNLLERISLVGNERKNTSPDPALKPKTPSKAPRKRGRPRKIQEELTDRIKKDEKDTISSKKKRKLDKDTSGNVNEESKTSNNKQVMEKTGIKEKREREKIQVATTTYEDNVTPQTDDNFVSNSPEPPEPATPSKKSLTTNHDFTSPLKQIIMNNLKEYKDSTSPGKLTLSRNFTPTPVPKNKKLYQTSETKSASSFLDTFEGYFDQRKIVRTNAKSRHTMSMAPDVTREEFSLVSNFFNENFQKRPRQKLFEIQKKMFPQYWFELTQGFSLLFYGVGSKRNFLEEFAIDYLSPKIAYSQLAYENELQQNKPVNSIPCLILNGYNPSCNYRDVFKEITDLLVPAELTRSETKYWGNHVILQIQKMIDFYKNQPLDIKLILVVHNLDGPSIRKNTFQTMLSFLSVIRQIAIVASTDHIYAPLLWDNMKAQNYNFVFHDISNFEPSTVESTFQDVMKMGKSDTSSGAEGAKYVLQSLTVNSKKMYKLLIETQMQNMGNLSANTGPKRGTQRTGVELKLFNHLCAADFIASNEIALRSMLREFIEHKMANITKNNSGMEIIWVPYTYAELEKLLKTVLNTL
T1 sequence (P54790 2-616 partner): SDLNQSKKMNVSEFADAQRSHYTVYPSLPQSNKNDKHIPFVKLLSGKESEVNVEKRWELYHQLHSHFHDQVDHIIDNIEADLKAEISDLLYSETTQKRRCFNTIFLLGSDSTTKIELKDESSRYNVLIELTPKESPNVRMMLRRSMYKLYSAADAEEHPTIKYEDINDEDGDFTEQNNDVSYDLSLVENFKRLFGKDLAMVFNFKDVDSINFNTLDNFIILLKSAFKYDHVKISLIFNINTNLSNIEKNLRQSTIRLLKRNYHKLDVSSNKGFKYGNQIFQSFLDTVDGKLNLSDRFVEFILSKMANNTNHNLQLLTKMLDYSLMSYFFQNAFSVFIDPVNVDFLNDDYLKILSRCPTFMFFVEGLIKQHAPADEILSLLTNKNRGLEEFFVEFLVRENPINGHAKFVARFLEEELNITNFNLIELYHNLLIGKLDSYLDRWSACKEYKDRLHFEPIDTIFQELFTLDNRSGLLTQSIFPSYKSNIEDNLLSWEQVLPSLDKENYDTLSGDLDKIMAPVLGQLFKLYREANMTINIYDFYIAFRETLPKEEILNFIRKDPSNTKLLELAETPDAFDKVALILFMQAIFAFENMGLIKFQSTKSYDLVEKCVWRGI
T1 sequence (P50874 whole entry partner): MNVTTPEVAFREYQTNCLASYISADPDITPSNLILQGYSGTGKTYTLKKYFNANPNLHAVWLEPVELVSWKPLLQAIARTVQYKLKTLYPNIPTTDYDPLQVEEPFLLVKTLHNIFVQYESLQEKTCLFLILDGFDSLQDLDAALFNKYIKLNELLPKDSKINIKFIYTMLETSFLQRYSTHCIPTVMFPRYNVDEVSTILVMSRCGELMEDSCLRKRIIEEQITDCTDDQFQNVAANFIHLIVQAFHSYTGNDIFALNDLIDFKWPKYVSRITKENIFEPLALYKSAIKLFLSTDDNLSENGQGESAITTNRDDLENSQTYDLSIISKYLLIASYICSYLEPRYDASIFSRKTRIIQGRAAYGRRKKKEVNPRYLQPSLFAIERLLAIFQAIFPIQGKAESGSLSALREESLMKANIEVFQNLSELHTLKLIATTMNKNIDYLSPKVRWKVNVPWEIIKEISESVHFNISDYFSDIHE
T1 sequence (P38826 whole entry partner): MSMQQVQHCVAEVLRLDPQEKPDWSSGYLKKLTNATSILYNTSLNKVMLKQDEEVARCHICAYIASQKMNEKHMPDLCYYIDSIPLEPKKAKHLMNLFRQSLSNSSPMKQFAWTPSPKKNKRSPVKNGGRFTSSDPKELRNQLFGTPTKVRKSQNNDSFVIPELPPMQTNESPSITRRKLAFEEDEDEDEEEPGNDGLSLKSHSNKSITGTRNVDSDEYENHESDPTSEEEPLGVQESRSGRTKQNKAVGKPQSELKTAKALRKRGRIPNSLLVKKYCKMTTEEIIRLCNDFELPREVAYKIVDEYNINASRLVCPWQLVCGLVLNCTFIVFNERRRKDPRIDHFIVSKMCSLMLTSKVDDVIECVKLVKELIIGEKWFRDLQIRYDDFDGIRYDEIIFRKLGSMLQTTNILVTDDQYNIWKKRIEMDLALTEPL
Source text: (§1) nitrocellulose filter binding, Scatchard plot on ORC (ScORC, ORC hexamer)

[5] = target: T2, ORC (ScORC, ORC hexamer) (Saccharomyces cerevisiae, UniProt P54784+P54791); assay: nitrocellulose filter binding, Scatchard plot
T2 construct: gene ORC1; with Origin recognition complex subunit 2; Origin recognition complex subunit 3; Origin recognition complex subunit 5; Origin recognition complex subunit 6
T2 sequence (P54784 whole entry): as the sequence (P54784 whole entry R367A) above, with A367R counted along it
T2 sequence (P54791 whole entry): as the sequence (P54791 whole entry) above
T2 sequence (P32833 whole entry partner): as the sequence (P32833 whole entry partner) above
T2 sequence (P54790 2-616 partner): as the sequence (P54790 2-616 partner) above
T2 sequence (P50874 whole entry partner): as the sequence (P50874 whole entry partner) above
T2 sequence (P38826 whole entry partner): as the sequence (P38826 whole entry partner) above
Source text: as §1

[6] = target: T3, ORC (ScORC, ORC hexamer) (Saccharomyces cerevisiae, UniProt P54784+P54791, P54784:K362A); assay: nitrocellulose filter binding, Scatchard plot
T3 construct: gene ORC1; with Origin recognition complex subunit 2; Origin recognition complex subunit 3; Origin recognition complex subunit 5; Origin recognition complex subunit 6
T3 sequence (P54784 whole entry K362A): as the sequence (P54784 whole entry R367A) above, with K362A, A367R counted along it
T3 sequence (P54791 whole entry): as the sequence (P54791 whole entry) above
T3 sequence (P32833 whole entry partner): as the sequence (P32833 whole entry partner) above
T3 sequence (P54790 2-616 partner): as the sequence (P54790 2-616 partner) above
T3 sequence (P50874 whole entry partner): as the sequence (P50874 whole entry partner) above
T3 sequence (P38826 whole entry partner): as the sequence (P38826 whole entry partner) above
Source text: as §1

[7] = target: T4, S. cerevisiae origin recognition complex (ORC) hexamer, wild type (S. cerevisiae, UniProt P54784 1-914; P32833 1-620; P54790 1-616; P54791 1-529; P50874 1-479; P38826 …); assay: native gel or EMSA; ORC and Cdc6 incubated with Cy5-labeled ARS1 DNA (1.6 nM) and 300 ng GC-rich competitor, 10 min at room temperature, 25 mM HEPES-KOH pH 7.6, 100 mM potassium glutamate, 1 mM ATP; Cdc6-dependent supershift of the ORC-ARS1 complex on a 4% polyacrylamide gel; settings: both partners purified
T4 construct: Orc1, largest subunit of the S. cerevisiae origin recognition complex; expressed from ORC1-TEV-His; Orc2, subunit of the S. cerevisiae origin recognition complex; Orc3, subunit of the S. cerevisiae origin recognition complex; Orc4, subunit of the S. cerevisiae origin recognition complex; Orc5, subunit of the S. cerevisiae origin recognition complex; Orc6, subunit of the S. cerevisiae origin …

[8] = target: ORC-1R367A hexamer (Saccharomyces cerevisiae, UniProt P54784;P32833;P54790;P54791;P50874;P38826 1-914;1-620;1-616;1-529;1-479;1-435, R367A); assay: EMSA; 1 mM ATP, competitor dsDNA; 25 mM HEPES-KOH pH 7.6, 100 mM K glutamate, 5 mM Mg acetate, 5 mM CaCl2, 5 mM DTT, 5% glycerol, 0.1% Triton X-100, 2 mg/ml BSA, 1 mM ATP; 1.6 nM dsDNA or 3 nM ssDNA, 300 ng GC-rich competitor in 5 ul, 10 min, room temperature; settings: protein: recombinant; tags: TEV-His on Orc1; copies: 1;1;1;1;1;1; label: 3' Cy5-ddUTP (terminal transferase)
[9] = target: ORC hexamer wild-type (Orc1-TEV-His/Orc2/3/4/5/6) (Saccharomyces cerevisiae, UniProt P54784;P32833;P54790;P54791;P50874;P38826 1-914;1-620;1-616;1-529;1-479;1-435); assay: as above; settings: protein: recombinant; tags: TEV-His on Orc1 (C-terminal by name); copies: 1;1;1;1;1;1; label: 3' Cy5-ddUTP (terminal transferase)
[10] = target: ORC-1K362A hexamer (Saccharomyces cerevisiae, UniProt P54784;P32833;P54790;P54791;P50874;P38826 1-914;1-620;1-616;1-529;1-479;1-435, K362A); assay: as above; settings: protein: recombinant; tags: TEV-His on Orc1; copies: 1;1;1;1;1;1; label: 3' Cy5-ddUTP (terminal transferase)

CCCACATGTCAATTTAGTATATTACTGTATATCTAGTTCATTCTTCAAAATAAAGAATGCATAACCATTTTTTTATGTTTTTTCCGGAATTGGCTAAATTCACAAAAAAAAAGAGCATAAAGCGAATTGAATTGTCTCGCCAAGAAAACGCACTGAGAGGACGATTGATCCTCCAGACAAGATCGGAATTTTTACTTTTCTGTTTTTAACGACGTCGG (double strand) [ARS609 fragment]
binding [1]: binds more weakly
binding [2]: binds more weakly

CCGACGTCAGATCTTAATTTATCTCATGAAGTAATGATACCTCAGCGATGTGCTCGCTCGTTAGTATGCTTCATAAATTCATTATTATTTTTTTTTGGAAGTGTTTTTCGACAAAAGTTGCATTTTTACGAAGGATATGTAAACTCAAGAAGTACTAAATAAATATAAATACAATTCGAAAATTTGAAAAAAGTAGGAGACAACACTTTCCTTCCTCACGAAGAAGTTAAGCTTACATGTGGG (double strand) [ARS306 fragment]
binding [1]: binds more weakly
binding [2]: binds more weakly

ARS1 wild-type fragment
binding signal [3]: > 100

Nc1ncnc2c1ncn2[C@@H]1O[C@H](COP(=O)(O)OP(=O)(O)OP(=O)(O)O)[C@@H](O)[C@H]1O [ATP]
Kd [4]: 32 nM
Kd [5]: 31 nM
Kd [6]: 35 nM

B1: ScCdc6 (natural protein, S. cerevisiae, UniProt P09119 1-513, looked up)
chain: MSAIPITPTKRIRRNLFDDAPATPPRPLKRKKLQFTDVTPESSPEKLQFGSQSIFLRTKALLQKSSELVNLNSSDGALPARTAEYEQVMNFLAKAISEHRSDSLYITGPPGTGKTAQLDMIIRQKFQSLPLSLSTPRSKDVLRHTNPNLQNLSWFELPDGRLESVAVTSINCISLGEPSSIFQKIFDSFQDLNGPTLQIKNMQHLQKFLEPYHKKTTFVVVLDEMDRLLHANTSETQSVRTILELFLLAKLPTVSFVLIGMANSLDMKDRFLSRLNLDRGLLPQTIVFQPYTAEQMYEIVIQKMSSLPTIIFQPMAIKFAAKKCAGNTGDLRKLFDVLRGSIEIYELEKRFLLSPTRGSLNSAQVPLTPTTSPVKKSYPEPQGKIGLNYIAKVFSKFVNNNSTRTRIAKLNIQQKLILCTIIQSLKLNSDATIDESFDHYIKAITKTDTLAPLQRNEFLEICTILETCGLVSIKKTKCKGKTKRFVDKIDVDLDMREFYDEMTKISILKPFLH
notes: Cdc6 of S. cerevisiae; source: E. coli, overexpressed and purified
binding result [7]: binds

B2: DL11 (ssDNA)
DNA: GTTACCATGGCATCGAGTTCTTCAACAAGACTACAATGG
binding result [8]: binds
binding result [9]: binds
binding result [10]: binds
